For 1 substance, stoichiometry N results are on record in paper PMC6344858.

What is called stoichiometry N is the number of molecules, sites or subunits per partner or assembly.

The target of assay [1] is PfoI restriction endonuclease, wild type (Pseudomonas fluorescens biovar 126). Briefly: SEC; analytical gel filtration on Superdex75 10/300; 10 mM Tris-HCl pH 7.5, 5 mM calcium chloride, with 150 mM NaCl ('low salt') or 300 mM KCl ('high salt'); 13.8 uM PfoI dimer with or without oligoduplex SP14-GF (1:1.2). (In general: In gel filtration, larger molecules generally elute earlier.)

For assay [2] the target is unchanged. Briefly: dynamic light scattering; PfoI-SP14 complex at various concentrations; Malvern Zetasizer uV; MW estimated from the apparent particle diameter.

As for “PfoI restriction endonuclease, wild type (enzyme)”, the stoichiometry N in assay [1] and in assay [2] was 2 in each case.
